Residue numbers refer to the chain shown, from its start. In names and notes the source's numbering stands.
B1: Y150-F8-8 (bispecific antibody, human IgG1, kappa)
scFv: QVQLVESGGGVVQPGRSLRLSCAASGFTFSTYAMNWVRQAPGKGLEWVARIRSKYNNYATYYADSVKDRFTISRDDSKNTLYLQMNSLRAEDTAVYYCARHGNFGNSYVSWFAYWGQGTLVTVSSGGGGSGGGGSGGGGSQTVVTQEPSLTVSPGGTVTLTCRSSTGAVTTSNYANWVQQKPGQAPRGLIGGTNKRAPGVPARFSGSLLGGKAALTLSGVQPEDEAEYYCALWYSNLWVFGGGTKVEIKGRGRGSDKTHTCPPSPAPPVAGPSVFLFPPKPKDTLMISRTPEVTCVVVDVSHEDPEVQFNWYVDGVEVHNAKTKPREEQFNSTFRVVSVLTVVHQDWLNGKEYKCKVSNKGLPAPIEKTISKTKGQPREPQVCTLPPSRDELTKNQVSLSCAVKGFYPSDIAVEWESNGQPENNYKTTPPVLDSDGSFFLVSKLTVDKSRWQQGNVFSCSVMHEALHNHYTQKSLSLSPGK
heavy: EVQLLESGGGLVQPGGSLRLSCAVSGFTFNSFAMSWVRQAPGKGLEWVSAISGSGGGTYYADSVKGRFTISRDNSKNTLYLQMNSLRAEDTAVYFCAKDKILWFGEPVFDYWGQGTLVTVSSASTKGPSVFPLAPSSKSTSGGTAALGCLVKDYFPEPVTVSWNSGALTSGVHTFPAVLQSSGLYSLSSVVTVPSSSLGTQTYICNVNHKPSNTKVDKKVEPKSCDKTHTCPPSPAPPVAGPSVFLFPPKPKDTLMISRTPEVTCVVVDVSHEDPEVQFNWYVDGVEVHNAKTKPREEQFNSTFRVVSVLTVVHQDWLNGKEYKCKVSNKGLPAPIEKTISKTKGQPREPQVYTLPPCRDELTKNQVSLWCLVKGFYPSDIAVEWESNGQPENNYKTTPPVLDSDGSFFLYSKLTVDKSRWQQGNVFSCSVMHEALHNHYTQKSLSLSPGK
light: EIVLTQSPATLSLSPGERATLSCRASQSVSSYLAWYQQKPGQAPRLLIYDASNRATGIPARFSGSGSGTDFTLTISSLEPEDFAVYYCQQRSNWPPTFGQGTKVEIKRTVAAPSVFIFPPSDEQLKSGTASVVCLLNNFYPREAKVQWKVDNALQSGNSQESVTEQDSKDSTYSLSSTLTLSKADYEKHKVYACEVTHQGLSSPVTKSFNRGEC
notes: Anti-CD38 (Dara) Fab arm and anti-CD3 scFv (VH2a/VL5)-Fc fusion peptide, CH2 SG2
B2: CT-F3 (bispecific antibody, human IgG1, kappa)
scFv: EVQLVESGGGLVQPGGSLRLSCAASGFTFSTYAMNWVRQAPGKGLEWVARIRSKYNNYATYYADSVKDRFTISRDDSKNTLYLQMNSLRAEDTAVYYCARHGNFGNSYVSWFAYWGQGTMVTVSSGGGGSGGGGSGGGGSQAVVTQEPSLTVSPGGTVTLTCGSSTGAVTTSNYANWVQQKPGQAPRGLIGGTNKRAPGVPARFSGSLLGGKAALTLSGAQPEDEAEYYCALWYSNLWVFGGGTKLEIKGGGGSDKTHTCPPCPAPEFEGGPSVFLFPPKPKDTLMISRTPEVTCVVVDVSHEDPEVKFNWYVDGVEVHNAKTKPREEQYNSTYRVVSVLTVLHQDWLNGKEYKCKVSNKALPASIEKTISKAKGQPREPQVCTLPPSRDELTKNQVSLSCAVKGFYPSDIAVEWESNGQPENNYKTTPPVLDSDGSFFLVSKLTVDKSRWQQGNVFSCSVMHEALHNHYTQKSLSLSPGK
heavy: EVQLLESGGGLVQPGGSLRLSCAVSGFTFNSFAMSWVRQAPGKGLEWVSAISGSGGGTYYADSVKGRFTISRDNSKNTLYLQMNSLRAEDTAVYFCAKDKILWFGEPVFDYWGQGTLVTVSSASTKGPSVFPLAPSSKSTSGGTAALGCLVKDYFPEPVTVSWNSGALTSGVHTFPAVLQSSGLYSLSSVVTVPSSSLGTQTYICNVNHKPSNTKVDKKVEPKSCDKTHTCPPCPAPEFEGGPSVFLFPPKPKDTLMISRTPEVTCVVVDVSHEDPEVKFNWYVDGVEVHNAKTKPREEQYNSTYRVVSVLTVLHQDWLNGKEYKCKVSNKALPASIEKTISKAKGQPREPQVYTLPPCRDELTKNQVSLWCLVKGFYPSDIAVEWESNGQPENNYKTTPPVLDSDGSFFLYSKLTVDKSRWQQGNVFSCSVMHEALHNHYTQKSLSLSPGK
light: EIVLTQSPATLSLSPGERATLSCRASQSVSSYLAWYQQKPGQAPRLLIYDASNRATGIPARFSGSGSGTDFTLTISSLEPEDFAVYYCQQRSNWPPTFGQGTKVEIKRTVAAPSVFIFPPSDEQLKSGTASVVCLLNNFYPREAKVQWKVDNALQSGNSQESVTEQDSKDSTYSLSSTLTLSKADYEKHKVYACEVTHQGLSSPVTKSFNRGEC
notes: Comparative: anti-CD38 (Dara) Fab arm and anti-CD3 scFv (CD3 antibody 1 VH, CD3 antibody 2 VL)-Fc fusion peptide
B3: IC-6 (bispecific antibody, human IgG1, kappa)
scFv: B2 scFv
heavy: EVKLDETGGGLVQPGRPMKLSCVASGFTFSDYWMNWVRQSPEKGLEWVAQIRNKPYNYETYYSDSVKGRFTISRDDSKSSVYLQMNNLRVEDMGIYYCTGSYYGMDYWGQGTSVTVSSASTKGPSVFPLAPSSKSTSGGTAALGCLVKDYFPEPVTVSWNSGALTSGVHTFPAVLQSSGLYSLSSVVTVPSSSLGTQTYICNVNHKPSNTKVDKKVEPKSCDKTHTCPPCPAPEFEGGPSVFLFPPKPKDTLMISRTPEVTCVVVDVSHEDPEVKFNWYVDGVEVHNAKTKPREEQYNSTYRVVSVLTVLHQDWLNGKEYKCKVSNKALPASIEKTISKAKGQPREPQVYTLPPCRDELTKNQVSLWCLVKGFYPSDIAVEWESNGQPENNYKTTPPVLDSDGSFFLYSKLTVDKSRWQQGNVFSCSVMHEALHNHYTQKSLSLSPGK
light: DVVMTQTPLSLPVSLGDQASISCRSSQSLVHSNGNTYLRWYLQKPGQSPKVLIYKVSNRFSGVPDRFSGSGSGTDFTLKISRVEAEDLGVYFCSQSTHVPWTFGGGTKLEIKRTVAAPSVFIFPPSDEQLKSGTASVVCLLNNFYPREAKVQWKVDNALQSGNSQESVTEQDSKDSTYSLSSTLTLSKADYEKHKVYACEVTHQGLSSPVTKSFNRGEC
notes: Comparative: 4420 Fab arm and anti-CD3 scFv (CD3 antibody 1 VH, CD3 antibody 2 VL)-Fc fusion peptide
B4: Y150-F8-1 (bispecific antibody, human IgG1, kappa)
scFv: EVQLVESGGGLVQPKGSLKLSCAASGFTFNTYAMNWVRQAPGKGLEWVARIRSKYNNYATYYADSVKDRFTISRDDSQSILYLQMNNLKTEDTAMYYCVRHGNFGNSYVSWFAYWGQGTLVTVSSGGGGSGGGGSGGGGSQAVVTQESALTTSPGETVTLTCRSSTGAVTTSNYANWVQEKPDHLFTGLIGGTNKRAPGVPARFSGSLIGDKAALTITGAQTEDEAIYFCALWYSNLWVFGGGTKLTVLGDGDGSDKTHTCPPCPAPEFEGGPSVFLFPPKPKDTLMISRTPEVTCVVVDVSHEDPEVKFNWYVDGVEVHNAKTKPREEQYNSTYRVVSVLTVLHQDWLNGKEYKCKVSNKALPASIEKTISKAKGQPREPQVCTLPPSRDELTKNQVSLSCAVKGFYPSDIAVEWESNGQPENNYKTTPPVLDSDGSFFLVSKLTVDKSRWQQGNVFSCSVMHEALHNHYTQKSLSLSPGK
heavy: B2 heavy
light: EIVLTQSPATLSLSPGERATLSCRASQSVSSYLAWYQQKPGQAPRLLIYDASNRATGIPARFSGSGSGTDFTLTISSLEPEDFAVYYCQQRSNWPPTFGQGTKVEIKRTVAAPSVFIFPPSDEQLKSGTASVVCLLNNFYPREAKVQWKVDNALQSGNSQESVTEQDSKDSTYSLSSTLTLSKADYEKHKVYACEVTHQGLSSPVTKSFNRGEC
notes: Comparative: anti-CD38 (Dara) Fab arm and anti-CD3 scFv (SP34)-Fc fusion peptide, CH2 FES
B5: Y150-F8-7 (bispecific antibody, human IgG1, kappa, N297A)
scFv: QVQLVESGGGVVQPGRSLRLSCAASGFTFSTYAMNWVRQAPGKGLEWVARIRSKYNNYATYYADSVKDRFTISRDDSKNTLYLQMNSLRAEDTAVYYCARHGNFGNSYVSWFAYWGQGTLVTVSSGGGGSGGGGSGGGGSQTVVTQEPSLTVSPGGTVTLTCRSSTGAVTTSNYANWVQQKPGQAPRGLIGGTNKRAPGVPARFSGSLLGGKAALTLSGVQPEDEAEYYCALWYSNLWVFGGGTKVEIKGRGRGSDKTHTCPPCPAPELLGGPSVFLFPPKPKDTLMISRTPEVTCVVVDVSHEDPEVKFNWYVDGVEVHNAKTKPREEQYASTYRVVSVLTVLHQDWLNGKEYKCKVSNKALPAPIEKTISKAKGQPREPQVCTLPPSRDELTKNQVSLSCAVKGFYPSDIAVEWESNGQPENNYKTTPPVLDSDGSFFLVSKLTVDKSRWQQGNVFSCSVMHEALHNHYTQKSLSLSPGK
heavy: B2 heavy with F239L, E240L, N302A, S336P
light: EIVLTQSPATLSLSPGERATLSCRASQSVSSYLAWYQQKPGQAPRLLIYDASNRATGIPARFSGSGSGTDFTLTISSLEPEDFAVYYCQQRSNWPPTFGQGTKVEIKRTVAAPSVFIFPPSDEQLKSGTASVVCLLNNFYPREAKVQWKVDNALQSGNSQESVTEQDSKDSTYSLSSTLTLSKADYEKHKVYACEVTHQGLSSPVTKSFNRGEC
notes: Anti-CD38 (Dara) Fab arm and anti-CD3 scFv (VH2a/VL5)-Fc fusion peptide, CH2 N297A
B6: Y150-F8-5 (bispecific antibody, human IgG1, kappa)
scFv: B2 scFv with E1Q, L11V, G16R, M120L, A142T, G163R, A220V, L246V
heavy: B2 heavy
light: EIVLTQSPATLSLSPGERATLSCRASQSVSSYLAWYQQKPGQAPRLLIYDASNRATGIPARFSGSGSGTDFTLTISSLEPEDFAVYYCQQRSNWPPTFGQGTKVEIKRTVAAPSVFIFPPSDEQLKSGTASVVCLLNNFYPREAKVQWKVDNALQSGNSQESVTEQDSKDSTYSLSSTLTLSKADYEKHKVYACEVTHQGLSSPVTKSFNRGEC
notes: also called Y150-8-5
B7: IC-4 (bispecific antibody, human IgG1, kappa)
scFv: B2 scFv with G163R, V200T, A220V, E247T, I248V, K249L
heavy: B3 heavy
light: B3 light
notes: Comparative: 4420 Fab arm and anti-CD3 scFv (CD3 antibody 1 VH/VL)-Fc fusion peptide
B8: IC-5 (bispecific antibody, human IgG1, kappa)
scFv: B2 scFv with S30N, A49G, D68G, M120L
heavy: B3 heavy
light: B3 light
notes: Comparative: 4420 Fab arm and anti-CD3 scFv (CD3 antibody 2 VH/VL)-Fc fusion peptide
B9: CT-F2 (bispecific antibody, human IgG1, kappa)
scFv: B2 scFv with S30N, A49G, D68G, M120L
heavy: B2 heavy
light: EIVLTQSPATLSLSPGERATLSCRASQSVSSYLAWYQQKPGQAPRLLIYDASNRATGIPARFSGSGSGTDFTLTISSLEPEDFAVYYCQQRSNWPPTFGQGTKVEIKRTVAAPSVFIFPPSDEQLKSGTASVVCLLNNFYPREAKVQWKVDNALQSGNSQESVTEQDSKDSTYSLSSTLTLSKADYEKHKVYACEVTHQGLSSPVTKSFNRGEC
notes: Comparative: anti-CD38 (Dara) Fab arm and anti-CD3 scFv (CD3 antibody 2 VH/VL)-Fc fusion peptide
B10: CT-F1 (bispecific antibody, human IgG1, kappa)
scFv: B2 scFv with G163R, V200T, A220V, E247T, I248V, K249L
heavy: B2 heavy
light: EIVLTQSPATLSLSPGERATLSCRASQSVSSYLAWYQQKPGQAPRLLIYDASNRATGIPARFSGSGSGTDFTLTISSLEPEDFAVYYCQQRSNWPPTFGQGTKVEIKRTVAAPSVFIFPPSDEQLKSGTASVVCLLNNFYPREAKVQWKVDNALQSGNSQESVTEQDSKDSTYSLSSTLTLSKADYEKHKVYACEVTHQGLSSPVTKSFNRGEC
notes: Comparative: anti-CD38 (Dara) Fab arm and anti-CD3 scFv (CD3 antibody 1 VH/VL)-Fc fusion peptide
B11: MS-hCD3-IC16 (bispecific antibody, human IgG1, kappa)
scFv: B2 scFv with E1Q, L11V, G16R, M120L, A142T, G163R, A220V, L246V
heavy: B3 heavy
light: B3 light
notes: 4420 Fab arm and anti-CD3 scFv (VH2a/VL5)-Fc fusion peptide, CH2 FES
B12: Y150-F8-2 (bispecific antibody, human IgG1, kappa, N297Q)
scFv: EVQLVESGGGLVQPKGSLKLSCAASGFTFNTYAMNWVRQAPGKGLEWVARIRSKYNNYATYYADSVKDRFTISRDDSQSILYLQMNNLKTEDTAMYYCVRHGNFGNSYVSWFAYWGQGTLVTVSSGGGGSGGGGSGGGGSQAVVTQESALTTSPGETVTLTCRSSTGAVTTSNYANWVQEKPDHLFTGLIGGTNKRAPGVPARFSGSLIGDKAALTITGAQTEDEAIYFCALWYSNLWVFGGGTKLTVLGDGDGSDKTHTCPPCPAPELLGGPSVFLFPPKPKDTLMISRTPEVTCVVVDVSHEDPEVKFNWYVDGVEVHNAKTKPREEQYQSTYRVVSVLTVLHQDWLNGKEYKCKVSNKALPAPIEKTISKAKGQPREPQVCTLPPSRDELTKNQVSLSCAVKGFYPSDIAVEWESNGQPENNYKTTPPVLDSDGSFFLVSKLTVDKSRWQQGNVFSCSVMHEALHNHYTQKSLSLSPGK
heavy: B2 heavy with F239L, E240L, N302Q, S336P
light: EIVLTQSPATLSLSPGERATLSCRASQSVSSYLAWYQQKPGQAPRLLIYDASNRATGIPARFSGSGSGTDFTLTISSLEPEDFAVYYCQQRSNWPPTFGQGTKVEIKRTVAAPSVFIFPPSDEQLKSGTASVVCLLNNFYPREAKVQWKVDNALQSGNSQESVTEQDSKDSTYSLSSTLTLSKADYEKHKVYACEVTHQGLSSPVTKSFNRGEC
notes: Comparative: anti-CD38 (Dara) Fab arm and anti-CD3 scFv (SP34)-Fc fusion peptide, CH2 N297Q
B13: Y150-F8-6 (bispecific antibody, human IgG1, kappa)
scFv: B2 scFv with E1Q, L11V, G16R, A99V, M120L, A142T, G163R, A220V, L246V
heavy: B2 heavy
light: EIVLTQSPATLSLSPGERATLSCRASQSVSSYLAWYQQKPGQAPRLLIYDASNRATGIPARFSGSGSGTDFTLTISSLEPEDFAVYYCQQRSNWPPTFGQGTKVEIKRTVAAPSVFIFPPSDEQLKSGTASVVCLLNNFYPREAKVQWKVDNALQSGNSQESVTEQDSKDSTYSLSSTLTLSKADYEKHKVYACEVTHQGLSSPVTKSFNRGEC
notes: also called Y150-8-6
B14: MS-hCD3-IC17 (bispecific antibody, human IgG1, kappa)
scFv: QVQLVESGGGVVQPGRSLRLSCAASGFTFSTYAMNWVRQAPGKGLEWVARIRSKYNNYATYYADSVKDRFTISRDDSKNTLYLQMNSLRAEDTAVYYCARHGNFGNSYVSWFAYWGQGTLVTVSSGGGGSGGGGSGGGGSQTVVTQEPSLTVSPGGTVTLTCRSSTGAVTTSNYANWVQQKPGQAPRGLIGGTNKRAPGVPARFSGSLLGGKAALTLSGVQPEDEAEYYCALWYSNLWVFGGGTKVEIKGGGGSDKTHTCPPSPAPPVAGPSVFLFPPKPKDTLMISRTPEVTCVVVDVSHEDPEVQFNWYVDGVEVHNAKTKPREEQFNSTFRVVSVLTVVHQDWLNGKEYKCKVSNKGLPAPIEKTISKTKGQPREPQVCTLPPSRDELTKNQVSLSCAVKGFYPSDIAVEWESNGQPENNYKTTPPVLDSDGSFFLVSKLTVDKSRWQQGNVFSCSVMHEALHNHYTQKSLSLSPGK
heavy: EVKLDETGGGLVQPGRPMKLSCVASGFTFSDYWMNWVRQSPEKGLEWVAQIRNKPYNYETYYSDSVKGRFTISRDDSKSSVYLQMNNLRVEDMGIYYCTGSYYGMDYWGQGTSVTVSSASTKGPSVFPLAPSSKSTSGGTAALGCLVKDYFPEPVTVSWNSGALTSGVHTFPAVLQSSGLYSLSSVVTVPSSSLGTQTYICNVNHKPSNTKVDKKVEPKSCDKTHTCPPSPAPPVAGPSVFLFPPKPKDTLMISRTPEVTCVVVDVSHEDPEVQFNWYVDGVEVHNAKTKPREEQFNSTFRVVSVLTVVHQDWLNGKEYKCKVSNKGLPAPIEKTISKTKGQPREPQVYTLPPCRDELTKNQVSLWCLVKGFYPSDIAVEWESNGQPENNYKTTPPVLDSDGSFFLYSKLTVDKSRWQQGNVFSCSVMHEALHNHYTQKSLSLSPGK
light: B3 light
notes: 4420 Fab arm and anti-CD3 scFv (VH2a/VL5)-Fc fusion peptide, CH2 SG2; also called MS-hCD3-17

target: T1, monkey CD3 (monkey); assay: flow cytometry on monkey CD3 positive T cells
T1 construct: whole, on cells; also called CD3 on monkey CD3 positive T cells

B1 and B2 are within 1.5-fold of each other in EC50: 159 nM for the first, 229 nM for the second.

B3 and B4 are within 1.5-fold of each other in EC50: 154 nM for the first, 152 nM for the second.

Compared with B5, B6 is 2-fold higher in EC50: 142 nM for the first, 291 nM for the second.

First: B7
Second: B8
The EC50 of the first is 1.8-fold higher: 296 nM for the first, 161 nM for the second.

First: B9
Second: B10
The EC50 of the first is 2-fold lower: 174 nM for the first, 347 nM for the second.

Compared with B11, B12 is 2.9-fold lower in EC50: 295 nM for the first, 102 nM for the second.

First: B13
Second: B14
The EC50 of the first is 7.6-fold lower: 29.2 nM for the first, 222 nM for the second. The first is the more potent here.

target: T2, human CD3 (human, UniProt P07766 23-207); assay: flow cytometry on human CD3 positive T cells
T2 construct: whole, on cells; Assays used CD3 positive T cells (or CIK cells) from human blood; also called Human CD3ϵ; CD3 on human CD3 positive T cells

First: B3
Second: B7
The EC50 of the first is 1.7-fold lower: 118 nM for the first, 197 nM for the second. The first is the more potent here.

B8 and B11 are within 1.5-fold of each other in EC50: 122 nM for the first, 170 nM for the second.

B14 gave an EC50 of 122 nM.
